Consider 2 substances from US6979460B1, “Vinyl ether lipids with cleavable hydrophlic headgroups” (Purdue Research Foundation, priority 1999, dated 2005).

For data set [1] the following is noted: DOPE:CVEP/calcein vesicles with DSPE-PEG3350-folate as targeting ligand.
The nature of data set [2]: Acid-triggered calcein release from DOPE:vinyl ether lipid vesicles (calcein fluorescence dequenching assay). The format is physicochemical. How it is done: DOPE and the labile PEG lipid were co-dissolved in chloroform that had been prefiltered through a 2.53 cm plug of anhydrous sodium carbonate to remove traces of acid and water from the solvent. This solution was evaporated under a gentle stream of N2 and further dried under vacuum (<200 μ, 4 h). Vesicles were formed by hydrating the lipid film in the presence of 50 mM calcein using five LN2 freeze-thaw-vortex cycles. This suspension was then extruded at 50° C. through two 100 nm track-etch polycarbonate membrane filters. Extraliposomal calcein was removed using a single pass through a 40 cm Sephadex G-50 gel column equilibrated with 150 mM NaCl. The fraction eluting at the void volume was collected and stored at 8° C. until use. Light-sensitive vesicles were prepared in the same manner, except that bacteriochlorophyll a (Bchl) was codissolved in the chloroform lipid solution. Other agents or mixtures of agents, such as therapeutic compounds or diagnostic agents, are substituted for calcein in the above protocol resulting in liposomal encapsulation of the substituted agent.
Vesicle release of the liposomes made in example 4 above, was monitored at 37° C. as a function of time using the calcein fluorescence dequenching assay. Acid-trigged release was initiated by dilution of the vesicles into an acidic buffer solution as described by Gerasimov et al. Light-triggered release was promoted by aerobic illumination (800 nm, 1 W) of a continuously stirred 1 cm quartz cuvette with a SDL 820 diode laser coupled to an optical fiber. The fiber was mounted perpendicular to the cuvette surface to produce a spot of ˜3 mm diameter. Both triggering methods were conducted either in the absence or presence of ten-fold excess of egg phosphatidylcholine (EPC) vesicles as a membrane “sink”.

For the substance “4-o-Cholesteryl-(3Z-buten-1-yl)-polyethylene [125] glycolate [CVEP]”, the “cellular calcein fluorescence pattern (cytoplasmic delivery)” value in data set [1] is “punctuated fluorescence, followed by diffuse cytoplasmic fluorescence”.

Consider “rac-1,2-Dioleyl-3-(4′-hydroxy-1′-butenyl)-glyceryl polyethylene [125] glycolate [DVEP]”, for which the t50% release entry in data set [2] (98:2 DOPE:DVEP vesicles, pH 4.5, in the absence of sink EPC) is on record as “≈ 3 h”; in data set [2] (98:2 DOPE:lipid vesicles (identical loadings), pH 4.5, 37° C.), 23 min. Further, the calcein leakage result in data set [2] (98:2 DOPE:DVEP vesicles, pH 7.4, sink EPC present or not) was “lack of leakage”.
